Data published in patent US20080058263A1 (published 2008).

T1: VEGFR-3-Fc (UniProt P35916 25-328)
T1 construct: domain: first three Ig domains; conditioned supernatant of 293T cells; also called VEGFR-3-Fc fusion protein; not shown: Fc fragment of the pIg vector
T1 sequence (looked up): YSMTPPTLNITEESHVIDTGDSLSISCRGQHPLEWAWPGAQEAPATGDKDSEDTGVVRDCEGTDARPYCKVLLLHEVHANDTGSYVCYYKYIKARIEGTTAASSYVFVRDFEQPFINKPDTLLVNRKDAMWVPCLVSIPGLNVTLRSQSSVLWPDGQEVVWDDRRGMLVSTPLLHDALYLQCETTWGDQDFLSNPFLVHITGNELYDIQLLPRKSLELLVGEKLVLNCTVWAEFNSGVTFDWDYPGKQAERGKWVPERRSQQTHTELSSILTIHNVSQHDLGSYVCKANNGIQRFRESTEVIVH


Key:
Assay in all cases: receptor-Fc IP
VEGFR-1-Fc = molecular target: T2, VEGFR-1-Fc (UniProt P17948 27-338)
T2 construct: domain: first three Ig domains; expressed in Drosophila S2 cells, purified on Protein A sepharose; also called VEGFR-1-Fc fusion protein; not shown: Fc fragment from the Signal-pIgPlus vector
T2 sequence (P17948 27-338): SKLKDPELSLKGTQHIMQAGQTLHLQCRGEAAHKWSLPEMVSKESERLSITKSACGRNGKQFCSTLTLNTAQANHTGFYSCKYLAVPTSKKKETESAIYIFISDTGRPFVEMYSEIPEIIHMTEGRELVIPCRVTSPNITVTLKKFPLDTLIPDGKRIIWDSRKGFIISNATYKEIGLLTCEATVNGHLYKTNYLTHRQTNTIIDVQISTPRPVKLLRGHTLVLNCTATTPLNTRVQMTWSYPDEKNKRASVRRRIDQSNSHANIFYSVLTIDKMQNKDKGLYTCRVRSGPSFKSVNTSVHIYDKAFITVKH
Protocol: (§1) The binding assay procedure was identical to the immunoprecipitation using pentahistidine antibody described in Example 2, apart from the composition of the immunoprecipitation (IP) mixes. The IP mixes used for the receptor binding analysis were as follows: For VEGFR-1 binding assays, the IP mix was phosphate buffered saline (PBS) containing 1.5% BSA, 0.06% Tween 20, 3 μg/ml heparin and 400 ng/ml VEGFR-1-Fc fusion protein (100 μl of this IP mix was added to 200 μl of sample supernatant); for VEGFR-2 binding assays, the IP mix was 82% conditioned cell supernatant from 293T cells transiently expressing VEGFR-2-Fc fusion protein in mixture with 18% of a PBS solution that contained 5% BSA, 0.2% Tween 20, and 10 μg/ml heparin (250 μl of IP mix was added to 200 μl of sample supernatant); and for VEGFR-3 binding assays, the IP mix was 82% conditioned cell supernatant from 293T cells transiently expressing VEGFR-3-Fc fusion protein, 18% of PBS containing 5% BSA, 0.2% Tween 20, and 10 μg/ml heparin (250 μl of IP mix was added to 200 μl of sample supernatant).

VEGFR-2-Fc = molecular target: T3, VEGFR-2-Fc (UniProt P35968 20-322)
T3 construct: domain: first 3 Ig domains; conditioned supernatant of 293T cells; also called VEGFR-2-Fc fusion protein; not shown: Fc fragment of the pIg vector
T3 sequence (P35968 20-322): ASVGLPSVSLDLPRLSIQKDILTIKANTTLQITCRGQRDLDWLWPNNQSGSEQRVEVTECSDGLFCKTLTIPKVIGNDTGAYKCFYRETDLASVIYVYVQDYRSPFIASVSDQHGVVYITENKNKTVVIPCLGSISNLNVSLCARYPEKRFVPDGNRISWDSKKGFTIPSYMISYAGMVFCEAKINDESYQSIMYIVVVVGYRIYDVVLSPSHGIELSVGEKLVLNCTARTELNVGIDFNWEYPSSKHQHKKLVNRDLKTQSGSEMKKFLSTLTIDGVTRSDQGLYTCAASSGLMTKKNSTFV
Protocol: as §1

VEGFR-3-Fc = molecular target: T1, VEGFR-3-Fc
Protocol: as §1

Row | Binder | binding result (VEGFR-1-Fc) | binding result (VEGFR-2-Fc) | binding result (VEGFR-3-Fc)
1 | 61-5 (ligand) GQNHHEVVKFMDVYQRSYCHPREVCIDVGKEYPDEIEYIFKPSCVPLMRCGGCCNDEGLECVPTEESNITMQIMRIKPHQGQHIGEMSFANHTSCRCMSKLD | no binding | no binding | no binding
2 | 81-7 (ligand) AHYNTEILKFMDVYQRSYCHPIETLVDIFQEYPDEIEYIFKPSCVPLMRCGGCCNSEGLQCVPTEESNITMQIMRIKPHQGQHIGEMSFANHTSCRCMSKLD | binds | binds | no binding
3 | 63-7 (ligand) GQNHHEVVKFMDVYQRSYCHPREVCIDVGKEYPDEIEYIFKPPCVSVYRCGGCCNSEGLQCVPTEESNITMQIMRIKPHQGQHIGEMSFANHTSCRCMSKLD | no binding | binds | binds
4 | 61-7 (ligand) GQNHHEVVKFMDVYQRSYCHPREVCIDVGKEYPDEIEYIFKPSCVPLMRCGGCCNSEGLQCVPTEESNITMQIMRIKPHQGQHIGEMSFANHTSCRCMSKLD | no binding | no binding | no binding
5 | 81-5 (ligand) AHYNTEILKFMDVYQRSYCHPIETLVDIFQEYPDEIEYIFKPSCVPLMRCGGCCNDEGLECVPTEESNITMQIMRIKPHQGQHIGEMSFANHTSCRCMSKLD | binds | binds | no binding
6 | 83-7 (ligand) AHYNTEILKFMDVYQRSYCHPIETLVDIFQEYPDEIEYIFKPPCVSVYRCGGCCNSEGLQCVPTEESNITMQIMRIKPHQGQHIGEMSFANHTSCRCMSKLD | binds | binds | no binding
7 | 83-15 (ligand, clone entry) AHYNTEILKFMDVYQRSYCHPIETLVDIFQEYPDEIEYIFKPPCVSVYRCGGCCNSEGLQCVPTEESNITMQIMRITVPLSQGPKPVTISFANHTSCRCMSKLDL | binds | binds | no binding
8 | 72-9 (ligand) GQNHHEVVKSIDNEWRKTQCMPREVCIDVGKEFGVATNTFFKPPCVSVYRCGGCCNDEGLECVPTEESNITMQIMRITVPLSQGPKPVTISFLQHNKCECRPKKD | no binding | no binding | no binding
9 | 83-9 (ligand) AHYNTEILKFMDVYQRSYCHPIETLVDIFQEYPDEIEYIFKPPCVSVYRCGGCCNDEGLECVPTEESNITMQIMRITVPLSQGPKPVTISFLQHNKCECRPKKD | binds | no binding | no binding
10 | 83-11 (ligand) AHYNTEILKFMDVYQRSYCHPIETLVDIFQEYPDEIEYIFKPPCVSVYRCGGCCNSEGLQCVPTEESNITMQIMRITVPLSQGPKPVTISFLQHNKCECRPKKD | binds | binds | no binding
11 | 83-13 (ligand) AHYNTEILKFMDVYQRSYCHPIETLVDIFQEYPDEIEYIFKPPCVSVYRCGGCCNDEGLECVPTEESNITMQIMRITVPLSQGPKPVTISFANHTSCRCMSKLD | binds | no binding | no binding

Further lines, results first:

Row | binding result (VEGFR-1-Fc) | binding result (VEGFR-2-Fc) | binding result (VEGFR-3-Fc) | Binder
12 | no binding | no binding | binds | 32-14 (ligand, clone entry) GQNHHEVVKSIDNEWRKTQCMPIETLVDIFQEFGVATNTFFKPPCVSVYRCGGCCNDEGLECMNTSTSYLSKTLFEITVPLSQGPKPVTISFANHTSCRCMSKLD
13 | no binding | no binding | binds | 32-16 (ligand) GQNHHEVVKSIDNEWRKTQCMPIETLVDIFQEFGVATNTFFKPPCVSVYRCGGCCNSEGLQCMNTSTSYLSKTLFEITVPLSQGPKPVTISFANHTSCRCMSKLD
14 | no binding | no binding | no binding | 72-13 (ligand) GQNHHEVVKSIDNEWRKTQCMPREVCIDVGKEFGVATNTFFKPPCVSVYRCGGCCNDEGLECVPTEESNITMQIMRITVPLSQGPKPVTISFANHTSCRCMSKLD
15 | no binding | no binding | binds | 32-9 (ligand) GQNHHEVVKSIDNEWRKTQCMPIETLVDIFQEFGVATNTFFKPPCVSVYRCGGCCNDEGLECVPTEESNITMQIMRITVPLSQGPKPVTISFLQHNKCECRPKKD
16 | no binding | no binding | binds | 32-11 (ligand) GQNHHEVVKSIDNEWRKTQCMPIETLVDIFQEFGVATNTFFKPPCVSVYRCGGCCNSEGLQCVPTEESNITMQIMRITVPLSQGPKPVTISFLQHNKCECRPKKD
17 | no binding | no binding | no binding | 24-9 (ligand) AHYNTEILKSIDNEWRKTQCMPREVCIDVGKEFGVATNTFFKPSCVPLMRCGGCCNDEGLECVPTEESNITMQIMRITVPLSQGPKPVTISFLQHNKCECRPKKD
18 | no binding | no binding | no binding | 34-9 (ligand) GQNHHEVVKSIDNEWRKTQCMPIETLVDIFQEFGVATNTFFKPSCVPLMRCGGCCNDEGLECVPTEESNITMQIMRITVPLSQGPKPVTISFLQHNKCECRPKKD
19 | no binding | no binding | no binding | 74-13 (ligand) GQNHHEVVKSIDNEWRKTQCMPREVCIDVGKEFGVATNTFFKPSCVPLMRCGGCCNDEGLECVPTEESNITMQIMRITVPLSQGPKPVTISFANHTSCRCMSKLD
20 | no binding | no binding | no binding | 22-9 (ligand) AHYNTEILKSIDNEWRKTQCMPREVCIDVGKEFGVATNTFFKPPCVSVYRCGGCCNDEGLECVPTEESNITMQIMRITVPLSQGPKPVTISFLQHNKCECRPKKD
21 | no binding | no binding | no binding | 72-15 (ligand) GQNHHEVVKSIDNEWRKTQCMPREVCIDVGKEFGVATNTFFKPPCVSVYRCGGCCNSEGLQCVPTEESNITMQIMRITVPLSQGPKPVTISFANHTSCRCMSKLD
22 | no binding | no binding | no binding | 22-11 (ligand) AHYNTEILKSIDNEWRKTQCMPREVCIDVGKEFGVATNTFFKPPCVSVYRCGGCCNSEGLQCVPTEESNITMQIMRITVPLSQGPKPVTISFLQHNKCECRPKKD
23 | no binding | no binding | no binding | 71-9 (ligand) GQNHHEVVKSIDNEWRKTQCMPREVCIDVGKEYPDEIEYIFKPSCVPLMRCGGCCNDEGLECVPTEESNITMQIMRITVPLSQGPKPVTISFLQHNKCECRPKKD
24 | no binding | no binding | binds | 32-15 (ligand) GQNHHEVVKSIDNEWRKTQCMPIETLVDIFQEFGVATNTFFKPPCVSVYRCGGCCNSEGLQCVPTEESNITMQIMRITVPLSQGPKPVTISFANHTSCRCMSKLD
